For series [1], the target named is T1, Topo65 (human topoisomerase I fragment, residues 215-765) (Homo sapiens, UniProt P11387 SEQ:22-572).
T1 chain: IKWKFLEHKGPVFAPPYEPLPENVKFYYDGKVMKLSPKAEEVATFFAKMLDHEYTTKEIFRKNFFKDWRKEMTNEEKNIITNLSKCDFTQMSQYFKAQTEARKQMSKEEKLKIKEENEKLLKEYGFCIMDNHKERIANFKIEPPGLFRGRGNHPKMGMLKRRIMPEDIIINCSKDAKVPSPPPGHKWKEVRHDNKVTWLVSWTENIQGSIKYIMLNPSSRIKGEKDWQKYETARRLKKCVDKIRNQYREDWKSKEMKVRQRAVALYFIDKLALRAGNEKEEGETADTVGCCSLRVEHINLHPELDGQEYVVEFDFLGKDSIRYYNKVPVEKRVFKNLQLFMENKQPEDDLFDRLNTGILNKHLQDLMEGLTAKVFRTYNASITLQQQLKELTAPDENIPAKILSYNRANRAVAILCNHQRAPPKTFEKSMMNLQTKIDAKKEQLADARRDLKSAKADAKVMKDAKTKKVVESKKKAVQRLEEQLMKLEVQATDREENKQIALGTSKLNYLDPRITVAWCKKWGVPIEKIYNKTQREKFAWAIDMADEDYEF
Briefly: no gel shift with single strand alone. Here is the method: (§1) The duplex substrates shown in FIGS. 3A and 3B were reacted overnight at room temperature with Topo65. The reaction mixtures contained 3 μM Topo65, 10 μM duplex substrate, 10 mM Tris-HCl, pH 7.5, 100 mM KCl, 10 mM MgCl2, 1 mM EDTA, and 2 mM DTT. The reaction products were adjusted to 1 M NaCl or NOT and then analyzed by 10% SDS-PAGE and Coomassie Blue staining (lanes 4-7). FIG. 4 is a photograph of the stained gel.
This experiment was repeated after removal of the DMT from the AS oligonucleotides by acid treatment, and an identical gel-shift was observed on reaction of “DMT off” oligonucleotide complexes with Topo65. However, no gel shift was observed if duplex generated from ratios of single strand oligonucleotides alone, for example, TCRIBamS, TCRIBamAS, TCRIBstBS or TCRIBstBAS alone.
(In general: In EMSA bound probe runs differently from free probe, usually more slowly.)

Series [2] deals with T1, Topo65 (human topoisomerase I fragment, …). Briefly: covalent complex by SDS-PAGE shift; enzyme reacts quantitatively. Here is the method:
as §1
As a control, Topo65 was allowed to react with a duplex 22-mer suicide substrate. The suicide substrate contains a centrally positioned 5′-bridging phosphorothiolate.

For AATTCGCGGCCGCAAAAAGACTTCG (ssDNA, 5'-bridging phosphorothiolate 2 bases from 3' end) [TCRIBstBS alone], the binding result in series [1] is listed as “no binding”. The same measure, in the same setting: with CGAAGTCTTTTTGCGGCCGCG (ssDNA) [TCRIBstBAS alone] the entry was “no binding”. Still for that read-out and setting: for GATCAAGTCTTTTTGCGGCCGCG (ssDNA) [TCRIBamAS alone] the value was “no binding”.

B1: suicide 22-mer duplex (dsDNA)
DNA 1: AAAAAGACTTAGAAAAATTTTT
DNA 2: AAAAATTTTTCTAAGTCTTTTT
modifications: 5'-bridging phosphorothiolate between GACTT and AGAAAA of top strand
Regarding B1, in series [2], the binding result is recorded as “binds”. In the case of AATTCGCGGCCGCAAAAAGACTTGATC (ssDNA, 5'-bridging phosphorothiolate 4 bases from 3' end) [TCRIBamS alone], the binding result in series [1] is on record as “no binding”.
